Data from US20260232732A1 (FUNDACI INSTITUT DE RECERCA CONTRA LA LEUC MIA JOSEP …, published 2026).
Where no end group is shown, it is not given here. The star is where a group is joined. Biotin = O=C1N[C@H]2[C@H](CS[C@H]2CCCCC(=O)*)N1

T1: naked peptide 1a MTPTDFTSPIPNMADDYGSESTSS (human)
T1 construct: also called region 1-24
T1 peptide: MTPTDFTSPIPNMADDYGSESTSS

T2: naked peptide 1b MEDYVNFNFTDFYCEKNNVRQFAS (human)
T2 construct: also called region amino acids 25 to 48
T2 peptide: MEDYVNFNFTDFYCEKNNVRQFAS

T3: biotin-peptide SMEDYVNFNF (human)
T3 peptide: Biotin-SMEDYVNFNF

T4: biotin-peptide TSSMEDYVNF (human)
T4 peptide: Biotin-TSSMEDYVNF

T5: biotin-peptide TDFTSPIPNM (human)
T5 peptide: Biotin-TDFTSPIPNM

T6: biotin-peptide TDFYCEKNNV (human)
T6 peptide: Biotin-TDFYCEKNNV

T7: biotin-peptide MTPTDFTSPI (human, also: prints MTPTDFTSP, without I10)
T7 peptide: Biotin-MTPTDFTSPI

T8: biotin-peptide TSPIPNMADD (human)
T8 peptide: Biotin-TSPIPNMADD

T9: biotin-peptide IPNMADDYGS (human)
T9 peptide: Biotin-IPNMADDYGS

T10: biotin-peptide MADDYGSEST (human)
T10 peptide: Biotin-MADDYGSEST

T11: biotin-peptide SSMEDYVNFN (human)
T11 peptide: Biotin-SSMEDYVNFN

T12: biotin-peptide YVNFNFTDFY (human)
T12 peptide: Biotin-YVNFNFTDFY

T13: biotin-peptide DYGSESTSSM (human)
T13 peptide: Biotin-DYGSESTSSM

T14: biotin-peptide YCEKNNVRQF (human)
T14 peptide: Biotin-YCEKNNVRQF

T15: biotin-peptide SESTSSMEDY (human)
T15 peptide: Biotin-SESTSSMEDY

T16: biotin-peptide FNFTDFYCEK (human)
T16 peptide: Biotin-FNFTDFYCEK

T17: biotin-peptide MEDYVNFNFT (human)
T17 peptide: Biotin-MEDYVNFNFT

T18: Peptide 1-BSA (MADDYGSEST-C conjugated to BSA) (human)
T18 peptide: MADDYGSESTC(BSA)

T19: Peptide 1, non-conjugated (MADDYGSEST-C) (human)
T19 construct: With the extra C-terminal Cys
T19 peptide: MADDYGSESTC

T20: Peptide 2, non-conjugated (GSESTSSMED-C) (human)
T20 construct: With the extra C-terminal Cys
T20 peptide: GSESTSSMEDC


Columns and labels:
[1] = target: T1, naked peptide 1a …; test: ELISA naked 24-mer; repI
[2] = target: T2, naked peptide 1b …; test: ELISA naked 24-mer; repI
[3] = target: T3, biotin-peptide SMEDYVNFNF; test: ELISA biotin-peptide; scFv 10 ug/mL; repI
Experimental: (§1) The peptides were synthesized naked or with a N-terminal Biotin modification with a purity of >98%. All four scFvs were verified by ELISA that can be detected with anti-His antibodies. ELISA was performed for scFv-peptide binding validation. Briefly, naked peptides were coated (50 μg/mL) in 0.58M carbonate-bicarbonate buffer pH9.5, 100 μL/well, 4° C. O/N. Then after blocking (3% BSA-PBS, 300 μL/well 37° C. 1.5 h) and washing (PBS+Tween-20 0.05% v/v (0.05% PBST), wells were incubated with each purified scFv antibody at concentration of 1 μg/mL in PBS at 37° C. 1 h. After washing (0.05% PBST), wells were incubated with secondary antibodies (goat anti-His IgG-HRP) in PBS, 37° C., 30 min. After washing, and incubation with TMB substrate, reactions were stopped with 2M HCl and reading was quantified at OD450.
(§2) Then a library of overlapping peptides were designed and constructed separately to produce 16 different peptides, covering full antigen sequence of total 48 aa. Peptide size was 10aa, with 7aa overlapping and ELISA screening of scFv against each peptide was performed in duplicate. Screening was performed using naked peptides in a standard plate or biotinylated peptides using avidin-plates. The list of overlapping peptides was as follows:
(§3) ELISA with biotin-conjugated peptides (5 μg/mL) was performed very similar to described above with minor modifications.

[4] = target: T4, biotin-peptide TSSMEDYVNF; test: ELISA biotin-peptide; scFv 10 ug/mL; repI
Experimental: as §1, §2, §3

[5] = target: T5, biotin-peptide TDFTSPIPNM; test: ELISA biotin-peptide; scFv 10 ug/mL; repI
Experimental: as §1, §2, §3

[6] = target: T6, biotin-peptide TDFYCEKNNV; test: ELISA biotin-peptide; scFv 10 ug/mL; repI
Experimental: as §1, §2, §3

[7] = target: T7, biotin-peptide MTPTDFTSPI; test: ELISA biotin-peptide; scFv 10 ug/mL; repI
Experimental: as §1, §2, §3

[8] = target: T8, biotin-peptide TSPIPNMADD; test: ELISA biotin-peptide; scFv 10 ug/mL; repI
Experimental: as §1, §2, §3

[9] = target: T9, biotin-peptide IPNMADDYGS; test: ELISA biotin-peptide; scFv 10 ug/mL; repI
Experimental: as §1, §2, §3

[10] = target: T10, biotin-peptide MADDYGSEST; test: ELISA biotin-peptide; scFv 10 ug/mL; repI
Experimental: as §1, §2, §3

[11] = target: T11, biotin-peptide SSMEDYVNFN; test: ELISA biotin-peptide; scFv 10 ug/mL; repI
Experimental: as §1, §2, §3

[12] = target: T12, biotin-peptide YVNFNFTDFY; test: ELISA biotin-peptide; scFv 10 ug/mL; repI
Experimental: as §1, §2, §3

[13] = target: T13, biotin-peptide DYGSESTSSM; test: ELISA biotin-peptide; scFv 10 ug/mL; repI
Experimental: as §1, §2, §3

[14] = target: T14, biotin-peptide YCEKNNVRQF; test: ELISA biotin-peptide; scFv 10 ug/mL; repI
Experimental: as §1, §2, §3

[15] = target: T15, biotin-peptide SESTSSMEDY; test: ELISA biotin-peptide; scFv 10 ug/mL; repI
Experimental: as §1, §2, §3

[16] = target: T16, biotin-peptide FNFTDFYCEK; test: ELISA biotin-peptide; scFv 10 ug/mL; repI
Experimental: as §1, §2, §3

[17] = target: T3, biotin-peptide SMEDYVNFNF; test: ELISA biotin-peptide; scFv 5 ug/mL; repI
Experimental: as §1, §3
(§4) A full curve ELISA was performed for each positive scFv/biotin-peptide pair in order to confirm previous results. Tables 15-17 show ELISA results of the dose-dependent full curve for each positive peptide with scFv “CCR9_HUM”, “Comp-2” and “Comp-3”, respectively.

[18] = target: T4, biotin-peptide TSSMEDYVNF; test: ELISA biotin-peptide; scFv 5 ug/mL; repI
Experimental: as §1, §3, §4

[19] = target: T11, biotin-peptide SSMEDYVNFN; test: ELISA biotin-peptide; scFv 5 ug/mL; repI
Experimental: as §1, §3, §4

[20] = target: T17, biotin-peptide MEDYVNFNFT; test: ELISA biotin-peptide; scFv 5 ug/mL; repI
Experimental: as §1, §3, §4

[21] = target: T18, Peptide 1-BSA (MADDYGSEST-C conjugated …); test: ELISA; Ab 0.125 ug/mL; repI
Experimental: (§5) In brief, plates with each non-conjugated peptide (50 μg/mL) or BSA-conjugated peptide (5 μg/mL) were coated in 0.58M carbonate-bicarbonate buffer pH9.5, 100 μL/well, at 4° C. […] After washing, wells were incubated with the 3, 3′,5,5′-Tetramethylbenzidine (TMB) HRP substrate and reactions were stopped with 2M HCl and OD450 was recorded.

[22] = target: T19, Peptide 1, non-conjugated (MADDYGSEST-C); test: ELISA; Ab 0.125 ug/mL; repI
Experimental: as §5

[23] = target: T21, BSA (negative control coating) (bovine, UniProt P02769 25-607); test: ELISA; Ab 0.125 ug/mL; repI
T21 construct: also called Negative control BSA
Experimental: as §5

[24] = target: T20, Peptide 2, non-conjugated (GSESTSSMED-C); test: ELISA; Ab 0.125 ug/mL; repI
Experimental: as §5

T21 sequence (P02769 25-607 limits assumed): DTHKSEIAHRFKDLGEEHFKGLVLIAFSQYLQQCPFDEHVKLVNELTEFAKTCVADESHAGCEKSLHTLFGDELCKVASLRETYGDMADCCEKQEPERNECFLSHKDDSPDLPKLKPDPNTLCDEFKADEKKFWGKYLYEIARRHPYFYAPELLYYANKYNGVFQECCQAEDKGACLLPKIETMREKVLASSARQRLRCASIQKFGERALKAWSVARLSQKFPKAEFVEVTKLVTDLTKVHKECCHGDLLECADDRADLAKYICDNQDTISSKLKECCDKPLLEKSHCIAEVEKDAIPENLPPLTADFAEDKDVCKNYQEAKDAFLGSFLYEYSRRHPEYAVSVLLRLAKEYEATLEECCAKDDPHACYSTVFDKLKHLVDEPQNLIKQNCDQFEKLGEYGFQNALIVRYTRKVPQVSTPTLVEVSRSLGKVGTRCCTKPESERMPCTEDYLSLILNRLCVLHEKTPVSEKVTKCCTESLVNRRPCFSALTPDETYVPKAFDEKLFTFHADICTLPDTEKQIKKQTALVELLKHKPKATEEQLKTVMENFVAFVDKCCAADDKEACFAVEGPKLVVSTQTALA

Row | OD450 [1] | OD450 [2] | OD450 [3] | OD450 [4] | OD450 [5] | OD450 [6] | OD450 [7] | OD450 [8] | OD450 [9] | OD450 [10] | OD450 [11] | OD450 [12] | OD450 [13] | OD450 [14] | OD450 [15] | OD450 [16] | Binder | other results
1 | 0.05 OD | 2.22 OD | 2.48 OD | 2.05 OD | 0.12 OD | 0.08 OD | 0.09 OD | 0.09 OD | 0.14 OD | 0.09 OD | 2.45 OD | 0.17 OD | 0.09 OD | 0.07 OD | 0.08 OD | 0.05 OD | CCR9_HUM2 scFv (humanized anti-CCR9 scFv, SEQ ID NO: 17 with C-terminal 6xHis tag) (scFv) scFv: QVQLVQSGAEVKKPGASVKVSCTASGYSFTDYIIYWVKQAHGQSLEWMGYIDPNNYNTRYSQKFQGKVTITVDKSSTSAYMELNSLTSDDTAVYYCARDVYWGQGTTVTVSSGGGGSGGGGSGGGGSGGGGSDVVMTQTPLSLSVTPGQPASISCRSSQSLVHSNGKTYLQWYLQKPGQSPKLLIYKVSNRFSGVPDRFSGSGSGTDFTLKISRVEAEDVGVYFCAQSTHVWTFGGGTKVEIKRAHHHHHH | OD450 [17]: 1.78 OD; OD450 [18]: 1.47 OD; OD450 [19]: 1.86 OD; OD450 [20]: 1.71 OD
2 | 0.09 OD | 1.97 OD | 0.09 OD | 0.08 OD | 0.1 OD | 0.06 OD | 0.08 OD | 0.04 OD | 0.1 OD | 0.08 OD | 0.12 OD | 1.93 OD | 0.09 OD | 0.09 OD | 0.06 OD | 1.45 OD | Comparative antibody 2 (Comp-2) scFv, 243LO326 (VH SEQ ID NO: 51 and VL SEQ ID NO: 52 of WO 2022/195028 A2), His-tagged (scFv) scFv: QVQLVQSGAEVKKPGASVKVSCKASGYTFTSYWMHWVRQAPGQGLEWIGVIYPGNSDTRYNQKFKGRVTITRDTSASTAYMELSSLRSEDTAVYYCTRDYYSNYVYYYAMDYWGQGTTVTVSSGGGGSGGGGSGGGGSGGGGSDIVMTQTPLSLPVTPGEPASISCRSSQSLVHPNRNTYLHWYLQKPGQSPQLLIYKVSNRFSGVPDRFSGSGSGTDFTLKISRVEAEDVGVYYCSQSTHVPWTFGQGTKLEIKHHHHHH | 
3 | 1.38 OD | 0.11 OD | 0.1 OD | 0.1 OD | 0.11 OD | 0.08 OD | 0.1 OD | 1.6 OD | 1.59 OD | 0.09 OD | 0.15 OD | 0.1 OD | 0.12 OD | 0.11 OD | 0.15 OD | 0.09 OD | Comparative antibody 3 (Comp-3) scFv, SR_92R (Somovilla-Crespo et al. 2018), His-tagged (scFv) scFv: EVKLEESGGGLVQPGGSMKLSCVASGFTFNKFWMNWVRQSPEKGLEWVAEIRLKSNNYATHYAESVKGRFTISRDDSKSSVYLQMNNLRAEDTGIYYCASDGWFAYWGQGTLVTVSAGGGGSGGGGSGGGGSGGGGSDVVMTQTPLSLPVSLGDQASISCRSSQSLVHSNGNTYLNWCLQRPGQSPKSLIYKVSNRFSGVPDRFSGSGSGTDFTLKISRVEAEDLGVYFCSQSTHFPRTFGGGTKLEIKRHHHHHH | 
4 |  |  |  |  |  |  |  |  |  |  |  |  |  |  |  |  | anti-CCR9 antibody clone 115 (murine, from hybridoma #115) (antibody, V domains shown, Mouse IgG1) VH: QVQLKQSGPELVKPGTSVRVSCTASGYSFTDYIIYWVKQSHGRSLEWIGYIDPNNYNTRYSQKFKGKATLTVDKSSTSAFMHLNSLTSDDSAVYYCARDVYWGQGTTLTVSS VL: DVVMTQTPLSLTVSLGDQASISCRSSQSLVHSNGKTYLQWYLQKPGQSPKLLIYKVSNRFSGVPDRFSGSGSGTDFTLKISRVEAEDLGVYFCAQSTHVWTFGGGTKLEIKR | OD450 [21]: 0.02 OD; OD450 [22]: 0.01 OD; OD450 [23]: 0.01 OD; OD450 [24]: 0.01 OD
5 | 0.08 OD | 0.09 OD | 0.15 OD | 0.1 OD | 0.06 OD | 0.08 OD | 0.08 OD | 0.13 OD | 0.16 OD | 0.08 OD | 0.1 OD | 0.1 OD | 0.1 OD | 0.06 OD | 0.13 OD | 0.06 OD | Comparative antibody 1 (Comp-1) scFv, SEQ ID NO: 10 from WO2023/037125 A1, His-tagged (scFv) scFv: QVQLKESGPGLVQPSQTLSLTCTVSGFSVASYDMHWVRLPPGKGLEWMGIIWANGNTHYNSGLKSRLSISRDTSKSQVFLKMNSLQTEDTAIYFCTRGGFAYWGQGTLVTVSSGGGGSGGGGSGGGGSGGGGSDVVMTQTPVSLSVSLGGQVSISCRSSQSLVHNNGNTYLSWYLQKPGQSPQLLIYKVSNRFSGVSDRFSGSGSGTDFTLKISRVEPDDLGVYYCGQGTQYPTFGGGTKLELKHHHHHH | 
